Publication PMC7432317, “Structural Analysis of the SANT/Myb Domain of FLASH and YARP Proteins and Their Complex with the C-Terminal Fragment of NPAT by NMR Spectroscopy and Computer Simulations” (International Journal of Molecular Sciences, 2020)

Target: T1, C-terminal fragment of FLICE-associated huge protein (FLASH), residues 1923-1982 (human, UniProt Q9UKL3 1923-1982)
T1 construct: FLASH (FLICE-associated huge protein), residues 1923-1982; residue 1982 is the C-terminal amino acid of the protein; Uniformly 15N- or 13C,15N-labelled for NMR; also called FLASH fragment; SANT/Myb domain of FLASH; source: E. coli BL21 (DE3), pET28a, minimal M9 media, purified (nickel beads, SEC Superdex 75)
T1 sequence (looked up): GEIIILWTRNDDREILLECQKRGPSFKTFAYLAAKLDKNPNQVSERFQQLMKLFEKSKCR
Assay: NMR titration; 1H-15N HSQC of 15N-labelled FLASH fragment (300 uM) with step-wise addition of the NPAT peptide (150 uM, two fold molar excess of FLASH analysed; equimolar mixtures precipitated); 25 mM TRIS-HCl, 200 mM KCl, pH 6.2, 50 mM Arg+Glu, 40 mM TCEP, 298 K
Settings: both partners purified

- binding result: binds
B1: NPAT peptide, the last 31 residues of NPAT (1397-1427) (peptide)
peptide: KKKKIKKKKLPSSFPAGMDVDKFLLSLHYDE
notes: Free N-terminus, carboxyl at C-terminus; also called C-terminal NPAT peptide; source: synthetic peptide (Fmoc solid phase synthesis, RP-HPLC purified)
